Laboratory results as given in the supplement of paper PMC12667976.
± gives the standard error.

B1: library; numbered along this chain (parent)
chain: MATDAALRRLLRLHRTEIAVAVDSAFPLLHALADHDVVPEDKFQETLHLKEKEGCPQAFHALLSWLLTQDSTAILDFWRVLFKDYNLERYGRLQPILDSFPKDVDLSQPRKGRKPPAVPKALVPPPRLPTKRKASEEARAAAPAALTPRGTASPGSQLKAKPPKKPESSAEQQRLPLGNGIQTMSASVQRAVAMSSGDVPGARGAVEGILIQQVFESGGSKKCIQVGGEFYTPSKFEDSGSGKNKARSSSGPKPLVRAKGAQGAAPGGGEARLGQQGSVPAPLALPSDPQLHQKNEDECAVCRDGGELICCDGCPRAFHLACLSPPLREIPSGTWRCSSCLQATVQEVQPRAEEPRPQEPPVETPLPPGLRSAGEEVRGPPGEPLAGMDTTLVYKHLPAPPSAAPLPGLDSSALHPLLCVGPEGQQNLAPGARCGVCGDGTDVLRCTHCAAAFHWRCHFPAGTSRPGTGLRCRSCSGDVTPAPVEGVLAPSPARLAPGPAKDDTASHEPALHRDDLESLLSEHTFDGILQWAIQSMARPAAPFPS

Variants of: B1
Test: AIRE transcriptional activation functional score (insulin promoter-GFP; nonsense median 0, synonymous median 1) (normalised score); higher = higher AIRE activity (more reporter activation)
Conditions: with insulin promoter-GFP reporter in HEK293
Protocol: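 Deep mutational scan of full-length human AIRE (codon-optimized cDNA, DT-POPCode NNN libraries over three regions) integrated at a Bxb1 landing pad in HEK293 cells carrying an insulin core promoter-GFP reporter at a Flp-In site. Cells were sorted for the top 10% GFP about 14 days after transfection. Variant frequency log-ratios (select vs non-select, TileSeq) were rescaled so that the nonsense median is 0 and the synonymous median is 1, then averaged over biological replicates.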

Variant | AIRE transcriptional activation functional score
Q276S | 0.925 ± 0.17
Q276G | 1.39 ± 0.29
H415F | 1.67 ± 0.23
C446R | 0.0344 ± 0.14
C449M | -0.542 ± 0.087
G251N | -0.159 ± 0.13
E383D | 0.97 ± 0.076
P125K | 0.907 ± 0.37
P125M | 1.18 ± 0.048
P252Y | 0.649 ± 0.21
P252G | 0.0827 ± 0.056
A403N | 1.09 ± 0.056
D103P | -0.105 ± 0.42
L146D | 1.73 ± 0.13
A450H | 1.43 ± 0.17
V393T | 1.14 ± 0.18
A205C | 1 ± 0.082
P176E | 0.297 ± 0.71
Q342L | 0.929 ± 0.18
Q342D | 0.916 ± 0.08
G240E | 0.406 ± 0.48

Variant | AIRE transcriptional activation functional score
G240M | 1.08 ± 0.075
G240R | 1.01 ± 0.24
E347Y | 1.43 ± 0.062
E207V | -0.0618 ± 0.09
S153D | 0.728 ± 0.95
V345T | 1.24 ± 0.34
K114W | 1.32 ± 0.14
I528T | 0.117 ± 0.3
V362E | 1.07 ± 0.17
V362C | 0.914 ± 0.096
V362R | 1.14 ± 0.17
A140G | 1.12 ± 0.45
L175T | 0.916 ± 0.35
P381A | 0.912 ± 0.28
P289Q | 0.942 ± 0.36
G219A | 1.13 ± 0.2
P466H | 1.46 ± 0.26
P466A | 0.83 ± 0.3
L444A | 0.718 ± 0.21
L11G | -0.259 ± 0.73
L11N | 0.0103 ± 0.076

Variant | AIRE transcriptional activation functional score
L11S | 0.17 ± 0.34
G260K | 0.721 ± 0.25
T524M | -0.346 ± 0.17
Q293P | 0.602 ± 0.28
Q293I | 0.523 ± 0.12
L495E | 1 ± 0.11
V487Y | 1.13 ± 0.23
V487L | 1.03 ± 0.18
R92W | 0.13 ± 0.17
R92V | -0.0193 ± 0.75
R92A | -0.0922 ± 0.45
P124W | 1.5 ± 0.057
E329Y | 1.42 ± 0.31
E329F | 1.58 ± 0.24
D514K | -0.0487 ± 0.099
A451T | 0.528 ± 0.23
G268E | 1.14 ± 0.28
G268R | 1.09 ± 0.32
I74V | 0.51 ± 0.27
M194H | 0.96 ± 0.21
M194R | 0.732 ± 0.29

Variant | AIRE transcriptional activation functional score
A25H | -1.85 ± 0.26
R127L | 0.607 ± 0.27
A271F | 0.885 ± 0.31
Q426M | 1.34 ± 0.16
Q426I | 0.87 ± 0.067
Q426G | 0.866 ± 0.13
L392K | 1.14 ± 0.08
P430A | 0.806 ± 0.25
V348R | 1.19 ± 0.22
S338E | 0.862 ± 0.16
W531V | -0.0485 ± 0.2
W531D | 0.357 ± 0.3
H292Y | 0.957 ± 0.47
P509Q | 1.12 ± 0.14
P509H | 0.506 ± 0.064
D515G | 0.421 ± 0.14
C314S | 1.07 ± 0.24
P542T | 0.963 ± 0.13
R456C | 1.3 ± 0.088
F543Y | 0.833 ± 0.25
L93G | -0.0131 ± 0.3
